Consider one substance from publication PMC12657230.

The target of this test is ECOR31 mCpol (minimal CRISPR polymerase) with residual ENLYFQ cleavage site (E. coli ECOR31). In words: SEC; HiLoad 16/600 Superdex 200 pg, 20 mM Tris-HCl pH 8.0, 500 mM KCl, 10% glycerol, 1 mM TCEP; elution compared with a molecular weight standard.

In turn, “ECOR31 mCpol (minimal CRISPR polymerase) with residual ENLYFQ cleavage site (enzyme)” displayed a stoichiometry N of 2.

In general, stoichiometry N refers to the number of molecules, sites or subunits per partner or assembly.
